Tested on: H460 cells
Test: H460 non-small cell lung carcinoma xenograft model
Assay type: in vivo, athymic nude mice
Conditions: combination partner Paclitaxel, Day 21
Description: Animals were monitored for regression responses.
The statistical tests were not adjusted for multiple comparisons.
Cultured H460 cells were harvested during exponential growth and resuspended in phosphate buffered saline at a concentration of 1×10^8 cells/mL. 1.0×10^7 tumor cells were injected subcutaneously into the flank of athymic nude mice. Animals were euthanized when tumors reached the pre-determined volume endpoint of 2000 mm^3 or on the final day (Day 88), whichever came first.

B1: M830: TEM8 monoclonal antibody (hIgG1), VH SEQ ID NO:5, VL SEQ ID NO:6; Fab in Table 6 (antibody, V domains shown)
VH: EVQLVESGGGVVQPGRSVRLSCAASGFTFSTYTMHWVRQAPGKGLEWVAIISNDGSNKYYADPVRGRFTISRDNSKNTLYLQMNSLRAEDTAVYYCVRGSSWYRGNWFDPWGQGTLVTVSS
VL: DIQMTQSPSSLSASVGDRVTIACRASQTISRYLNWYQQKPGKAPKLLIYAASSLQSGVSSRFSGSGSGTEFTLTISSLQPEDFATYFCQQTYSPPITFGQGTRLEIKR
modifications: TEM830 mAb VH; TEM830 mAb VL
regression: (−61%
